Results on 16 molecules are retold here after US20120121587A1 (Chugai, published 2012).

Broadly, the Kd is a measure of binding affinity in units of concentration.

This assay addresses T1, Human recombinant AXL-FND1 (GST-FND1), from pET-41b(+) (human, UniProt P30530 225-331).
T1 construct: Expressed in E. coli, purified on Glutathione Sepharose; analyte in all Biacore measurements; GST put first by the usual layout of pET-41; not shown: GST-tag of vector pET-41b(+) (Novagen)
T1 sequence (looked up): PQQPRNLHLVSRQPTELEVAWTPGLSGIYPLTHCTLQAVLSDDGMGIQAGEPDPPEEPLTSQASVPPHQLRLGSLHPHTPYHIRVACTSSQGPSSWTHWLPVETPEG
Briefly: SPR (Biacore T100): antibody captured on Protein A, GST-FND1 as analyte. In short, it runs like this:
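Antibodies (1 μg/mL) were captured for 2 min on a Protein A CM5 chip. GST-FND1 (0.5 and 2.0 μg/mL) in HBS-EP+ was flowed at 30 μL/min with 2 min association and 2 min dissociation at 25° C. ka and kd were fitted from sensorgrams and Kd was calculated from them.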
For orientation: SPR reads the build-up and loss of mass on a sensor chip optically.

B1: H33/L12 (antibody, human IgG1, kappa)
heavy: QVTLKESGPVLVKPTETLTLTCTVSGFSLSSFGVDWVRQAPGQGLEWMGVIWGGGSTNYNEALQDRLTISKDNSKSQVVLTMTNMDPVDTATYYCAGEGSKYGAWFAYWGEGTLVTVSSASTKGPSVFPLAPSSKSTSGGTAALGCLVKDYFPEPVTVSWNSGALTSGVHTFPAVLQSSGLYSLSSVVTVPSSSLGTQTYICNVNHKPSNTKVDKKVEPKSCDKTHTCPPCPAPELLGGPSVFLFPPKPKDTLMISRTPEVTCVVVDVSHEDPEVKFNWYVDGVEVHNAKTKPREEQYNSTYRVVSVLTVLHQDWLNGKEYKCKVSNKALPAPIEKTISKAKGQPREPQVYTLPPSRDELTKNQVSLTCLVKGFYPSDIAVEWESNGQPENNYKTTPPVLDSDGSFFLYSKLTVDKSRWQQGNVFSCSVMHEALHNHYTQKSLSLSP
light: DVVMTQSPLSLPVTLGQPASISCQSSQNIVHTNGNTYLEWYQQKPGEAPELLIYKVSNRFSGVPDRFSGSGSGTDFTLKISRVEAEDVGVYYCFQGSHIPFTFGQGTKVEIERTVAAPSVFIFPPSDEQLKSGTASVVCLLNNFYPREAKVQWKVDNALQSGNSQESVTEQDSKDSTYSLSSTLTLSKADYEKHKVYACEVTHQGLSSPVTKSFNRGEC
For the molecule B1, the Kd amounted to 3.06 nM.

B2: H36/L1 (antibody, human IgG1, kappa)
heavy: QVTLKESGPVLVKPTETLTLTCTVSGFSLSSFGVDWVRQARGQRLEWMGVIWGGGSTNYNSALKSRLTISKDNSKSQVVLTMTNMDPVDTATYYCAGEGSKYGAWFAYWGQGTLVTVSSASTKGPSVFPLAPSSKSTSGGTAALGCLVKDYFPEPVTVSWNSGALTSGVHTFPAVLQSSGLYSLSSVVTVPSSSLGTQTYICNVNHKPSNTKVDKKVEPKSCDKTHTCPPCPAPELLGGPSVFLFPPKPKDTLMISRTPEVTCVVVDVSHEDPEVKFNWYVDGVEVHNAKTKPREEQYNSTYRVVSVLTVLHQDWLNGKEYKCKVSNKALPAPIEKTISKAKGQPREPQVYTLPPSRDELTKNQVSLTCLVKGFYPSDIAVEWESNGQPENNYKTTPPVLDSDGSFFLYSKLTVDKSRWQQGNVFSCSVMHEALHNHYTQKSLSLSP
light: DVVMTQSPLSLPVTLGQPASISCQSSQNIVHTNGNTYLEWYQQKPGKAPELLIYKVSNRFSGVPDRFSGSGSGTDFTLKISRVEAEDVGVYYCFQGSHIPFTFGQGTKLEIKRTVAAPSVFIFPPSDEQLKSGTASVVCLLNNFYPREAKVQWKVDNALQSGNSQESVTEQDSKDSTYSLSSTLTLSKADYEKHKVYACEVTHQGLSSPVTKSFNRGEC
With B2, the Kd was 2.03 nM.

B3: H33/L13 (antibody, human IgG1, kappa, V domains shown)
VH: QVTLKESGPVLVKPTETLTLTCTVSGFSLSSFGVDWVRQAPGQGLEWMGVIWGGGSTNYNEALQDRLTISKDNSKSQVVLTMTNMDPVDTATYYCAGEGSKYGAWFAYWGEGTLVTVSS
VL: DVVMTQSPLSLPVTLGQPASISCQSSQNIVHTNGNTYLEWYQQKPGQAPELLIYKVSNRFSGVPDRFSGSGSGTDFTLKISRVEAEDVGVYYCFQGSHIPFTFGQGTKVEIER
On to B3, for which the Kd was determined as 3.02 nM.

B4: H34/L0 (antibody, human IgG1, kappa, V domains shown)
VH: QVTLKESGPVLVKPTETLTLTCTVSGFSLSKFGVDWVRQAPGKGLEWMGVIWGGGSTNYNSALKSRLTISKDNSKSQVVLTMTNMDPVDTATYYCAGEGSKYGAWFAYWGQGTLVTVSS
VL: DVVMTQSPLSLPVTLGQPASISCRSSQNIVHTNGNTYLEWYQQKPGKAPELLIYKVSNRFSGVPDRFSGSGSGTDFTLKISRVEAEDVGVYYCFQGSHIPFTFGQGTKLEIKR
Take B4: the Kd came to 5.94 nM.

B5: H36/L31 (antibody, human IgG1, kappa)
heavy: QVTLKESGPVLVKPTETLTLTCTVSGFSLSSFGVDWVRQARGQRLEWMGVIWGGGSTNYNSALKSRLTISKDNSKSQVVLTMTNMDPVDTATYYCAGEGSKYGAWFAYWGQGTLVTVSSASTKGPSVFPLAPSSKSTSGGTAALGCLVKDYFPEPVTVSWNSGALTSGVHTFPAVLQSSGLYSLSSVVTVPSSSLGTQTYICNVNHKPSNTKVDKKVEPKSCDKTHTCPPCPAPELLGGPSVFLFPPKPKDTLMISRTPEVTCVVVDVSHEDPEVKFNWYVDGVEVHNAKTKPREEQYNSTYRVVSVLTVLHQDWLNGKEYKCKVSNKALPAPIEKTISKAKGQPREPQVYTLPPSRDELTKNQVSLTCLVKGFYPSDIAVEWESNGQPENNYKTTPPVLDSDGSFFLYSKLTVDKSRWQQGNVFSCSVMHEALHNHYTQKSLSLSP
light: DVVMTQSPLSLPVTLGQPASISCRSSRNIVHTNGNTYLEWYQQKPGKAPKLLIYKVSNRFSGVPDRFSGSGSGTDFTLKISRVEAEDVGVYYCFQGSHIPFTFGQGTKLEIKRTVAAPSVFIFPPSDEQLKSGTASVVCLLNNFYPREAKVQWKVDNALQSGNSQESVTEQDSKDSTYSLSSTLTLSKADYEKHKVYACEVTHQGLSSPVTKSFNRGEC
Regarding B5, the equilibrium dissociation constant (Kd) was found to be 1.67 nM.

B6: H36/L28 (antibody, human IgG1, kappa)
heavy: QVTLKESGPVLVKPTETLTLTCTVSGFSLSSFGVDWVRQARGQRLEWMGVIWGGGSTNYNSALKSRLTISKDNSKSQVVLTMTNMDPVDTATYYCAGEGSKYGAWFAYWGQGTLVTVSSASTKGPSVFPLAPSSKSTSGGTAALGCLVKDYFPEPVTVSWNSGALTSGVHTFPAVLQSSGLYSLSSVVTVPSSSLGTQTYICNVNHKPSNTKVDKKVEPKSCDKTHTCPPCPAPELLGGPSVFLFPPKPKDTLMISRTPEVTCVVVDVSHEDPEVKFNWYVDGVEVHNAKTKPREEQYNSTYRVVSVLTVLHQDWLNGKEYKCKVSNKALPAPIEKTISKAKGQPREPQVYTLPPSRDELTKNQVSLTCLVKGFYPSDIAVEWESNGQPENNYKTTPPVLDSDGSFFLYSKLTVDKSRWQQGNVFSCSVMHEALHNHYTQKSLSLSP
light: DVVMTQSPLSLPVTLGQPASISCRSSQNIVHTNGNTYLEWYQQKPGKAPKLLIYKVSNRFSGVPDRFSGSGSGTDFTLKISRVEAEDVGVYYCFQGSHIPFTFGQGTKLEIKRTVAAPSVFIFPPSDEQLKSGTASVVCLLNNFYPREAKVQWKVDNALQSGNSQESVTEQDSKDSTYSLSSTLTLSKADYEKHKVYACEVTHQGLSSPVTKSFNRGEC
In the case of B6, the Kd came out at 1.95 nM.

B7: H36/L34 (antibody, human IgG1, kappa)
heavy: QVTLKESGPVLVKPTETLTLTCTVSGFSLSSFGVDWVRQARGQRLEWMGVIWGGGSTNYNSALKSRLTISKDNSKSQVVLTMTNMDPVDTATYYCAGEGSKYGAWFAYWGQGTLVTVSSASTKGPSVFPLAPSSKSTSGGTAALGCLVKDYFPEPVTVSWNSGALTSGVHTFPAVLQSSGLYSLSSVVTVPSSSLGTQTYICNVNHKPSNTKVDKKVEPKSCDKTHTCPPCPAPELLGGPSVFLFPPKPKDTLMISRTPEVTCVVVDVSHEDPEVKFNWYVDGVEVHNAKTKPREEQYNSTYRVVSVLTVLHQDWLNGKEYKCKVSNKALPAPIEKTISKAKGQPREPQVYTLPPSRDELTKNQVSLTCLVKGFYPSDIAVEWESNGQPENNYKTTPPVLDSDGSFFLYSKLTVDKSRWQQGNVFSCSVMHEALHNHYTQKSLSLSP
light: DVVMTQSPLSLPVTLGRPASISCRSSRNIVHTNGNTYLEWYQQKPGKAPKLLIYKVSNRFSGVPDRFSGSGSGTDFTLKISRVEAEDVGVYYCFQGSHIPFTFGQGTKLEIKRTVAAPSVFIFPPSDEQLKSGTASVVCLLNNFYPREAKVQWKVDNALQSGNSQESVTEQDSKDSTYSLSSTLTLSKADYEKHKVYACEVTHQGLSSPVTKSFNRGEC
For the molecule B7, the Kd is 2.01 nM.

B8: H36/L37 (antibody, human IgG1, kappa)
heavy: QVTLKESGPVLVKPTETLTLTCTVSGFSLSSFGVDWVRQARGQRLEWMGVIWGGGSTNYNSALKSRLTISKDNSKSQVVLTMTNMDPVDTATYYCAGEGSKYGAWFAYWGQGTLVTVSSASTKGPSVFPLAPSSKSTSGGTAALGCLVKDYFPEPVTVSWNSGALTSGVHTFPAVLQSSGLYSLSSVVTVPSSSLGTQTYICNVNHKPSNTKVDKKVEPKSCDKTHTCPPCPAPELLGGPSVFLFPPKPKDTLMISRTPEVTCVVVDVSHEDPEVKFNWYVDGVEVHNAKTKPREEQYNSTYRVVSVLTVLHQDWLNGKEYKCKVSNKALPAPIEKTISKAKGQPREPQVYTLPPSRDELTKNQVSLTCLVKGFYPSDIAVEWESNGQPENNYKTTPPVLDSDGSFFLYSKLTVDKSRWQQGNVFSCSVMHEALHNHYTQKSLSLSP
light: DVVMTQSPLSLPVTLGRPASISCRSSRNIVHTNGNTYLEWYQQKPGKAPKLLIYKVSNRFSGVPDRFSGSGSGTDFTLKISRVEAEDVGVYYCFQGSHIPFTFGRGTKLEIKRTVAAPSVFIFPPSDEQLKSGTASVVCLLNNFYPREAKVQWKVDNALQSGNSQESVTEQDSKDSTYSLSSTLTLSKADYEKHKVYACEVTHQGLSSPVTKSFNRGEC
On to B8, for which the Kd came to 2.2 nM.

B9: H36/L0 (antibody, human IgG1, kappa)
heavy: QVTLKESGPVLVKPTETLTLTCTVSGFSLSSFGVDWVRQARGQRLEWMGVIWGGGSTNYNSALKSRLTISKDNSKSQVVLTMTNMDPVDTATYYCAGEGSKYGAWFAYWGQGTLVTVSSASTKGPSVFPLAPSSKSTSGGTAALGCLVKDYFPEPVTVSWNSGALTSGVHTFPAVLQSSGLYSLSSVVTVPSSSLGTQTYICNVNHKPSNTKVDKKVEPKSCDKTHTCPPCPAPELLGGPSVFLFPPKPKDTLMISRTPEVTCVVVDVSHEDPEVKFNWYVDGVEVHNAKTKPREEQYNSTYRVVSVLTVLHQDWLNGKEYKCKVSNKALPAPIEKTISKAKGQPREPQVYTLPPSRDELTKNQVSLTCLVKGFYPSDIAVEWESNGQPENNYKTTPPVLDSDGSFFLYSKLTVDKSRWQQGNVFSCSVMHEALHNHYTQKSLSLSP
light: DVVMTQSPLSLPVTLGQPASISCRSSQNIVHTNGNTYLEWYQQKPGKAPELLIYKVSNRFSGVPDRFSGSGSGTDFTLKISRVEAEDVGVYYCFQGSHIPFTFGQGTKLEIKRTVAAPSVFIFPPSDEQLKSGTASVVCLLNNFYPREAKVQWKVDNALQSGNSQESVTEQDSKDSTYSLSSTLTLSKADYEKHKVYACEVTHQGLSSPVTKSFNRGEC
Consider B9, for which the Kd was 1.96 nM.

B10: H35/L0 (antibody, human IgG1, kappa, V domains shown)
VH: QVTLKESGPVLVKPTETLTLTCTVSGFSLSRFGVDWVRQAPGKGLEWMGVIWGGGSTNYNSALKSRLTISKDNSKSQVVLTMTNMDPVDTATYYCAGEGSKYGAWFAYWGQGTLVTVSS
VL: DVVMTQSPLSLPVTLGQPASISCRSSQNIVHTNGNTYLEWYQQKPGKAPELLIYKVSNRFSGVPDRFSGSGSGTDFTLKISRVEAEDVGVYYCFQGSHIPFTFGQGTKLEIKR
As for B10, the Kd amounted to 3.65 nM.

B11: H36/L10 (antibody, human IgG1, kappa)
heavy: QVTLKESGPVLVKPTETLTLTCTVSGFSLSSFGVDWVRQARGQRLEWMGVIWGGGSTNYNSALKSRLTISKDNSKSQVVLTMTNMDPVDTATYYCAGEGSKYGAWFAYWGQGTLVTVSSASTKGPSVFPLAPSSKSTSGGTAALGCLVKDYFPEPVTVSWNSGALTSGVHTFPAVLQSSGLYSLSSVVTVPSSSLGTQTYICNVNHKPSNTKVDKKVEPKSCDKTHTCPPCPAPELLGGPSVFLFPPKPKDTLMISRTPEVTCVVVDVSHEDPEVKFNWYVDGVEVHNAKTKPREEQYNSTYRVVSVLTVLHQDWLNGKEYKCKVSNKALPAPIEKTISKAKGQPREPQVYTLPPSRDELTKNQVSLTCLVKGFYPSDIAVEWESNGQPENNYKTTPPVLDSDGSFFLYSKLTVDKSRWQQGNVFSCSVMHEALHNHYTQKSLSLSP
light: DVVMTQSPLSLPVTLGQPASISCRSSQNIVHTNGNTYLEWYQQKPGKAPELLIYKVSNRFSGVPDRFSGSGSGTDFTLKISRVEAEDVGVYYCFQGSHIPFTFGQGTKVEIERTVAAPSVFIFPPSDEQLKSGTASVVCLLNNFYPREAKVQWKVDNALQSGNSQESVTEQDSKDSTYSLSSTLTLSKADYEKHKVYACEVTHQGLSSPVTKSFNRGEC
In the case of B11, the Kd was found to be 1.87 nM.

B12: H36/L11 (antibody, human IgG1, kappa)
heavy: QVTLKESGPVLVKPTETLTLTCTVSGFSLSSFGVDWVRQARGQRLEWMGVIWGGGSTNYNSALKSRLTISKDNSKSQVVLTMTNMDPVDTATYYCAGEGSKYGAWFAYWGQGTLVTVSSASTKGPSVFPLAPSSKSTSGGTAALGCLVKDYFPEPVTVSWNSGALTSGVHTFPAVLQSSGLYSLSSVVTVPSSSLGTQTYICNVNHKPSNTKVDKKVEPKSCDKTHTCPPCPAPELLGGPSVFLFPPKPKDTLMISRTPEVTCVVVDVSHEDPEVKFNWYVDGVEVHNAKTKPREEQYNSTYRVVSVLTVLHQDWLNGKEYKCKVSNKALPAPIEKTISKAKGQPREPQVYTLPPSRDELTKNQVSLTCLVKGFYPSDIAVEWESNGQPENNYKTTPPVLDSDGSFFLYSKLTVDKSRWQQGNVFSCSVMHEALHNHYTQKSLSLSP
light: DVVMTQSPLSLPVTLGQPASISCQSSQNIVHTNGNTYLEWYQQKPGKAPELLIYKVSNRFSGVPDRFSGSGSGTDFTLKISRVEAEDVGVYYCFQGSHIPFTFGQGTKVEIERTVAAPSVFIFPPSDEQLKSGTASVVCLLNNFYPREAKVQWKVDNALQSGNSQESVTEQDSKDSTYSLSSTLTLSKADYEKHKVYACEVTHQGLSSPVTKSFNRGEC
In the case of B12, the Kd was determined as 2.08 nM.

B13: H36/L35 (antibody, human IgG1, kappa)
heavy: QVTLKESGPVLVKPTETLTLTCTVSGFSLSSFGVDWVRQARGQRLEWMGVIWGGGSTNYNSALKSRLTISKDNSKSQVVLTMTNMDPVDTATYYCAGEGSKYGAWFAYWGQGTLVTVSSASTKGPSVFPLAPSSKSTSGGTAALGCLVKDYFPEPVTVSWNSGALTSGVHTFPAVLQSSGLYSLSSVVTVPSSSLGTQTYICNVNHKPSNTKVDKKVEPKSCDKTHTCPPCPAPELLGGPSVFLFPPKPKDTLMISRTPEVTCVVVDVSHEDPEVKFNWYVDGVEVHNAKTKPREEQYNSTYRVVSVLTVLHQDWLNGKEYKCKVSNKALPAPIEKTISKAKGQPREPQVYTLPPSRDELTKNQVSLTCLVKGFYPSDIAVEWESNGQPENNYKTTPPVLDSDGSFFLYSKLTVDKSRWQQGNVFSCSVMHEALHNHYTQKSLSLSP
light: DVVMTQSPLSLPVTLGQPASISCRSSRNIVHTNGNTYLEWYQQKPGKAPKLLIYKVSNRFSGVPDRFSGSGSGTDFTLKISRVEAEDVGVYYCFQGSHIPFTFGRGTKLEIKRTVAAPSVFIFPPSDEQLKSGTASVVCLLNNFYPREAKVQWKVDNALQSGNSQESVTEQDSKDSTYSLSSTLTLSKADYEKHKVYACEVTHQGLSSPVTKSFNRGEC
B13: the Kd was determined as 1.94 nM.

B14: H36/L27 (antibody, human IgG1, kappa)
heavy: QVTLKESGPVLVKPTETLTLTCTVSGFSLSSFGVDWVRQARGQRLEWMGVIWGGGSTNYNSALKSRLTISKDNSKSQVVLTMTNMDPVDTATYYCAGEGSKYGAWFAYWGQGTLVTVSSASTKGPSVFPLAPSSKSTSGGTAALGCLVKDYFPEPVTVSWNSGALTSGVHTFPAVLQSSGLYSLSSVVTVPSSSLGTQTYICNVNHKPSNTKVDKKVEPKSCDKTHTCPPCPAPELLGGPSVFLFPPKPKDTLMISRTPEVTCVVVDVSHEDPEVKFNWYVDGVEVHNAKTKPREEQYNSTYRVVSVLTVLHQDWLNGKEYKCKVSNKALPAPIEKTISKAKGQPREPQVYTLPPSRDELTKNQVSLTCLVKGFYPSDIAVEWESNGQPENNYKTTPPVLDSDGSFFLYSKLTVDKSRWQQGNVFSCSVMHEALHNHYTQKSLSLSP
light: DVVMTQSPLSLPVTLGQPASISCRSSRNIVHTNGNTYLEWYQQKPGKAPELLIYKVSNRFSGVPDRFSGSGSGTDFTLKISRVEAEDVGVYYCFQGSHIPFTFGQGTKLEIKRTVAAPSVFIFPPSDEQLKSGTASVVCLLNNFYPREAKVQWKVDNALQSGNSQESVTEQDSKDSTYSLSSTLTLSKADYEKHKVYACEVTHQGLSSPVTKSFNRGEC
For B14, the Kd worked out at 1.94 nM.

B15: H38/L0 (antibody, human IgG1, kappa, V domains shown)
VH: QVTLKESGPVLVKPTETLTLTCTVSGFSLSSFGVDWVRQAPGKGLEWMGVIWGGGSTNYNKALKSRLTISKDNSKSQVVLTMTNMDPVDTATYYCAGEGSKYGAWFAYWGQGTLVTVSS
VL: DVVMTQSPLSLPVTLGQPASISCRSSQNIVHTNGNTYLEWYQQKPGKAPELLIYKVSNRFSGVPDRFSGSGSGTDFTLKISRVEAEDVGVYYCFQGSHIPFTFGQGTKLEIKR
With B15, the Kd was 2.92 nM.

B16: H37/L0 (antibody, human IgG1, kappa, V domains shown)
VH: QVTLKESGPVLVKPTETLTLTCTVSGFSLSSFGVDWVRQAPGKGLEWMGVIWGGGSTNYNRALKSRLTISKDNSKSQVVLTMTNMDPVDTATYYCAGEGSKYGAWFAYWGQGTLVTVSS
VL: DVVMTQSPLSLPVTLGQPASISCRSSQNIVHTNGNTYLEWYQQKPGKAPELLIYKVSNRFSGVPDRFSGSGSGTDFTLKISRVEAEDVGVYYCFQGSHIPFTFGQGTKLEIKR
Regarding B16, the Kd is 2.92 nM.
